Assay results published in article PMC8169611.

Target: mouse proIGF2 (insulin-like growth factor 2 pro-hormone) (mouse)
Experiment: fluorescence polarisation

Q: “mouse proIGF2 (insulin-like growth factor 2 pro-hormone) (natural protein)” was tested. Which Kd did it give?
A: 2980 nM
